Data from publication PMC7156819.

Biological target: FOXM1 (Forkhead box M1) (UniProt Q08050)
Experiment: GST pull-down with purified proteins
Settings: reference: GST-ZNF148 WT without ERK; sites S306

For “ZNF148 (ZBP‐89) (from UniProt Q9UQR1) GST-ZNF148 WT pre-incubated with active ERK”, the “binding against the reference” value was “stronger”.
